From patent publication US20240026407A1, “MODIFICATION OF SAPONINS” (GLAXOSMITHKLINE BIOLOGICALS SA, priority 2020, published 2024)

B1: 9 (protein, listed as Streptomyces rubrolavendulae)
chain: MTADEAVEAALGALDLDTKARLLAGQDMWTLPAVPAVGLASLVMSDGPVGVRGVRWTADDPSVTLPSPTALAACWDPELARRAGRLLAQEARRKGVHVVLAPTVNLHRSPLGGRHFEAYSEDPYLTAETGAACVRGIQDGGVAATVKHFVANDAETDRFTVDNTVPPRALRELYLAPFEAIVRCARPWALMAAYNQVNGVTMTENRHLQTEVLRDAWGFDGVVVSDWFAARSTTGALVGGLDVAMPGPHTVYGDALAAAVRAGDVDEALVDRSVRRVLRLAARVGALEGAEPAVPSPPAHVDGEALAREIAHRSFVLVRNECGALPLDPARSRRVALVGAAARDARVLGGGSAHVFPARTVSPLDGLAAALPEGTELVHARGADLSGEPAPAGPGFALRAVCRDAEGTVLADVPLPSGQIQWIGADLPGGVTHEALHTVEVTGTYTPREGGAHGFGTRGVGAFTLTVGGRVLYDGTREAEPAGDPFEAFAGTPAEHGAADLAEGVPVEVSLRHTVDRDRPAPLPAVVFSLLHRPPRRDPDELIAEAVEAARGADAAVVVVATTERVESEGFDRADLRLPGRQDDLVRAVAAANPRTVVVVNAGAPVEMPWRDDVAAVLLTWFPGQEGGAALADVLLGAEEPGGRLPTTWPAALADAPVTAVTPVDGELRYEEGPFIGYRAWDRAPGGPAPAYPFGHGLGYTTWEYESLVVTPATARVRVRNTGTRPGREVIQLYVAPRADLAERPARWLVGFASVTAGPGARAEAEIRFAPRPFDVWDEEAGAWTAVPGQYEIRAGRSLTDTRLTVTLELD
B2: 240 (protein, listed as Acidipropionibacterium acidipropionici)
chain: MTELTDLPQYLLIRLLSGADDWRTVAAGEVGVRSLHLSDGPHGLRVPDVKGGSLPATCFPTAVTLGASWDRDLAEEVGGALAVEAGALGVDVVLGPGMNIKRHPLGGRNFEYLSEDPVVSGELAAAMVRGIQGRGVAACVKHFAVNNQETMRLCVDAVVDERTLHEIYLAAFETVVRTARPAAVMASYNEINGTAATTNRSLITEVLRGRWGFDGLVMSDWGAVWDRVAALEAGLDLEMPSSAGAFDRSVAAALDSGRLGLDAVLTSVSRLVGLQNRISPPRIDRIPADEHDALARRAATAGTVLAANDGILPLAAGSKVAVIGAFAARPRYQGSGSSQVNPTRVTGLLEALGAKDVEVGYARGYDPEEQRTDAVLVAEAAELAAASDVAVVVTGPPEELESEGYDRTGMDLPAQHDALVRAVLAANPRTVIVVCSGSPVALPWADRAAAVVLAGLGGQAGGGALADVLVGDAEPGGRLAETWPHDLSEVASDPWFPGTGAMVQYREGSAIGYRHTATNGVEPAFCFGHGLSYTRFDWRDAVLTEPWIVAGDGLSVDVEVANVGDRAGSDVVQVYLSDRTGVVSRPRRWLAGFAKVRLEAGQSRRVQVAVGARELGFWDVEKHDWVVPSGHFDVELGRSAHDIVATLDLVVSEGADHAPERAWTPLIAEDDEAFAARLGHEIPRPAATTPFTARSTLGQVRHTPLGGLLHAAAMRRLAAGVRDPRFRRMMEHTVDELPLRNLPSMTKGLVPLESVSLIVDVLNGAPDEILRRSFGGALGLGRGVVDAGRGLWGELSSRIGRLGR
B3: 325 (protein, listed as Ilumatobacter coccineus)
chain: MTGTSTGARRGIICGVIDIDAALNALSLADKCRLVAGETNWRTKAFPEAGIPQLKMSDGPTGIRGEGHGSAGTPGVAVPAGITLGASWDPDLLGEIGDLLGREAVRKRAHVLLGPTVNLHRTPIGGRTFECYSEDPELSGALAASYVRAVQRHDVAVTVKHFVCNDTEIDRMTVDVDVDERPLRELYLRPFERAVKEGGAWGIMTAYNRVAGEFAAQNRRLLTDILRGEWGFDGFAVSDWFGVHEPVGAANAGLTLEMPAPVRVYGDRLLAAIEAGSVTEETVDGLVRDLLGVMNRTKADERNCDEPELSIDDPAERALTRRAAIGGTVLLRNEPIDSSGHPVLPVALDGLASMAVIGPNAVIDRSMGGGSASLTPFDHRTLLDALSDRVGPDTDVRYEPGVRIDRLTPIVRSARLRTPDGADGLRLEYVNGTDWDAPATIDTVTSSSMIRFFGTTPDEIDATAFGARVSGSFVPEIDGPHEIGVVSTGPVTMTARTGDGDPIVVVDDPDMLLPRTREFFGYGSEESVATVECRAGEPVHLEVKWRTSAENGFAALRIGVRPPEPSDLIDRAVAAAAEADVAVVVVGTNDEWETEGFDREVMSLPGRQDELVERVVAANPNTVVVVNAGSPVSMDWAADDHPRPAAAIVTSFFAGQEQAEAMVDVLTGVADPAGRLPITYPQRLADTPAFEHHEPVRSAGRPPQQRYAEGLFIGHRHYEANDVAPRFWLGHGLSYGSVEWSTPTASRTSDTAASLDDSPIVVSLSLTNTSDRDATSVVQCYVAPIAPSVERPVRELKAWAKESLPAQARRDVSIELGSSAFRHWDEESGAWKVEPGEYDIVVATSADPDDEHERLRITIT
B4: 338 (protein, listed as Hungateiclostridium thermocellum)
chain: MAVDIKKIIKQMTLEEKAGLCSGLDFWHTKPVERLGIPSIMMTDGPHGLRKQREDAEIADINNSVPATCFPSAAGLACSWDRELVERVGAALGEECQAENVSILLGPGANIKRSPLCGRNFEYFSEDPYLSSELAASHIKGVQSQGVGACLKHFAANNQEHRRMTVDTIVDERTLREIYFASFENAVKKARPWVVMCAYNKLNGEYCSENRYLLTEVLKNEWMHDGFVVSDWGAVNDRVSGLDAGLDLEMPTSHGITDKKIVEAVKSGKLSENILNRAVERILKVIFMALENKKENAQYDKDAHHRLARQAAAESMVLLKNEDDVLPLKKSGTIALIGAFVKKPRYQGSGSSHITPTRLDDIYEEIKKAGGDKVNLVYSEGYRLENDGIDEELINEAKKAASSSDVAVVFAGLPDEYESEGFDRTHMSIPENQNRLIEAVAEVQSNIVVVLLNGSPVEMPWIDKVKSVLEAYLGGQALGGALADVLFGEVNPSGKLAETFPVKLSHNPSYLNFPGEDDRVEYKEGLFVGYRYYDTKGIEPLFPFGHGLSYTKFEYSDISVDKKDVSDNSIINVSVKVKNVGKMAGKEIVQLYVKDVKSSVRRPEKELKGFEKVFLNPGEEKTVTFTLDKRAFAYYNTQIKDWHVESGEFLILIGRSSRDIVLKESVRVNSTVKIRKRFTVNSAVEDVMSDSSAAAVLGPVLKEITDALQIDMDNAHDMMAANIKNMPLRSLVGYSQGRLSEEMLEELVDKINNVE
B5: 116 (protein, listed as Streptomyces netropsis)
chain: MPDDPVDVLDLDTKARLLSGQDMWSLPAVPRIGLRSIVMSDGPVGVRGVRWTADDPSLALPSPTALAATWDPALARRVGRLLAAEARRKGVHVLLAPTVNLHRSPLGGRHFEAYSEDPYLTARIGTGYVRGVQDGGVAAVVKHFVANDAETERFTVNNKVSARALRELYLAPFEAIVKDARPWGVMAAYNQVNGVTMTEHGHLQNDVLRGEWGFDGIVVSDWLAARDTVRAALGGLDVAMPGPVTVYGPALAAAVRAGDVPESVVDDAVRRVLRLADRVGALGEATRARPSAPDGRALAREVAARSFVLVRNAPVRGAPALPLDPAPGLRVALLGGAARDARILGGGSAQVFPARVVSPLDGLRAALPEGAVTYAVGAEPGDELLPAGAGFTLRAVCRDAAGRMLGEERMPSGMVQWLGDLPAGVGYEALRTVELTGTFTPRESGPHVFGTKGVGAFRLVVGGRTLFDGEQGADHADPFEAFLGSPVERGRVVLAAGTAVEVSLTCVVAEPDGAPIEAVGFCLLHREPERDAEELLAEAVAVAASADAAVVVVATTERVESEGFDRTTLALPGRQDELVARVAAVSPRTVVVVNSGSPVELPWRDDVAAVLLGWFPGQEAGGALADVLLGGCEPGGRLPTTWPVRLADAPVTRVAPVGGELAYAEGLFIGYRAWEKARATPAYAFGHGLGYTDWSYETLDMGGTGTARVRVRNTGSRPGREVVQVYLAVPPGDRAGRPVRRLAGFASVEAGPGETVEAVVALDPRAFEVWDDEAAGWRRIPGTYTAEAGRSIADRRLTAPVEVA
B6: 133 (protein, listed as Aquimixticola soesokkakensis)
chain: MTDSTATPPDPIAAKLTFARGRDYWTTQAAPEIGLRALRFADGPHGLRVQDDENPDHLGLERSAPATCFPPAVTLASSWDAALIEEVGAALGREARAAGVDVVLGPGLNLKRSPLCGRNFEYYSEDPMLSGLLAGASARGIQSVGVGACLKHFAANSQEGDRNRISADIDERSLRELYLRNFQLALEASGAWSIMTSYNRINGLHASQDPWLLTQVLREEWGFDGLVISDWGGVYDPVAALKAGMDLRMPGGALDDRLIAAHARGEIAEGDLDRVIANTTRLAERTRPRDTDVPPDVEAHHALVRRAAAESSVLLKNDGVLPLDPARYPKVAILGELARTPRIQGSGSSRVHPRRVVAPLDVLRERLAQSGAQVAFAPAYGLQNGPADAALITEALQVARDADIVLLFSGLTDAAEAEGSDRTHIDLPDQQLTLLAALADCDTPLVVSLANGAVVRSTQWRDTAQAIVEFWLSGQAHGETVADVLLGDVPPAGRLAQTIPRRLQDTPAFLDFPGEHRHVRHSEGLHIGYRWYDARDLAVDYPFGHGLSYTSFDYEELEIDVRASDDDIAFVARLTLRNSGARAGSEVVQLYASDPSTAYQTPPRELRGWQKVHLEAGESCAVSIPVKRAHLGHWHSGLKRWVFAGGPMTLHVGASSRDLRLTCETELHGEALPVVLTPWSLFGEWMQHPVMGPRIEALFASRGGVKGRAGDLLSDPAGRNTVYINPLAMLAQFPGVPLDQSDLETLCAEAAALA

Experiment: Experiment 4-1: screening of glucosidases for deglycosylation with purified QS-18 (0.04 mg/ml) at pH 7.5 and room temperature
Assay type: biochemical, Quillaja saponaria
Settings: pH 7.5, room temperature, 20 h, clarified E. coli lysate, QS-18 2150 to QS-21 1988 by LCMS/MS
In short: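 Candidate glucosidases expressed in E. coli BL21(DE3) (pET24b+, autoinduction, 20 °C for 20 h); clarified lysates in 100 mM potassium phosphate pH 7.5 incubated with QS-18 (0.04 mg/ml final) 20 h at room temperature. Quenched with MeCN, analysed by LC-MS/MS for % conversion; hits >3 S.D. above negative control.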

Row | Molecule | Expt 4-1 % conv
1 | B1 | 9.2%
2 | B2 | 9.0%
3 | B3 | 6.3%
4 | B4 | 6.3%
5 | B5 | 4.7%
6 | B6 | 3.7%

Experiment: Experiment 4-2: screening of glucosidases for deglycosylation with purified QS-18 (1 mg/ml) at pH 6 and 30 deg C
Assay type: biochemical, Quillaja saponaria
Settings: pH 6, 30 degC, 18 hrs, clarified lysate, LCMS/MS
In short: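 Clarified lysates of glucosidase-expressing cells in 100 mM potassium phosphate pH 6 were incubated 18 h at 30 °C with QS-18 at 1 mg/ml final. Reactions quenched with MeCN; deglycosylation activity determined by LC-MS/MS.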

Row | Molecule | Expt 4-2 % conv
7 | B1 | 0.9%
8 | B2 | 0.5%
9 | B3 | 0.9%
10 | B4 | 0.5%
11 | B5 | 0.5%
12 | B6 | 0.4%

Experiment: Experiment 4-4: screening of glucosidases for deglycosylation of QS-18 in crude bark extract (1 in 20 dilution) to QS-21
Assay type: biochemical, Quillaja saponaria
Settings: CBE 1 in 20 dilution, pH 6, 25 degC, 18 hours; % conversion of Middle Peak by UV HPLC
Description: Lysates were prepared as in Experiment 4-2.
Crude bark extract (CBE) was adjusted to pH 6 by dropwise addition of 2M NaOH with stirring. 25 uL of clarified lysate was transferred to a reaction plate, 22.5 ul of 100 mM potassium phosphate buffer pH 6 was added, 2.5 ul CBE at pH 6 was added. Reaction plates were sealed, incubated at 25 degC with shaking for 18 hours, then quenched by addition of 50 uL acetonitrile (MeCN). Quenched reaction plates were re-sealed and incubated at 20 degC with shaking for 10 min. The reaction plates were centrifuged (10 min, 4 degC) and analysed by UV HPLC with the method below:
Three key peaks of interest are apparent using this chromatography: Left Peak (retention time approximately 2.30-2.35 min) comprising mainly QS-17 family components; Middle Peak (retention time approximately 2.37-2.42 min) comprising mainly QS-18 family components and desglucosyl-QS-17 family components; and Right Peak (retention time approximately 2.44-2.50 min) comprising mainly QS-21 family components. Peak identity was supported by MS/MS.
Enzyme activity is calculated as the % conversion of the Middle Peak present in the crude bark extract: […]

Row | Molecule | Expt 4-4 % conv
13 | B1 | <3%
14 | B2 | <3%
15 | B3 | <3%
16 | B4 | <3%
17 | B5 | <3%
18 | B6 | <3%
